These results are taken from patent US6645762B2, “Synthases” (The Salk Institute for Biological Studies, priority 1998, dated 2003).

Assay type in all cases: biochemical
Data set [1] in a line: Alkylation of enzyme by radiolabeled FPP. To be noted: dependent upon the presence of MgCl2. The protocol:
Reactions to determine the products made by TEAS W273E using FPP as substrate were carried out essentially as described above, using radioiabeled FPP. […] The alkylation was dependent upon the presence of MgCl2 in the reaction mixture. In control experiments, boiled W273E-TEAS, as well as wild-type TEAS and BSA, were not alkylated.

A short description of data set [2]: Diterpene synthase activity assay with radiolabelled GGPP (solvent extraction, scintillation counting, Ag-TLC). To be noted: for conversion of GGPP to hexane-extractable products: 0.5 micromolar 3H GGPP plus unlabelled GGPP, 60 minutes at room temperature; for counts in hexane and ethyl acetate extracts after incubation with radiolabelled GGPP: hydrocarbon products extracted with hexane, oxygenated products with ethyl acetate, compared with buffer alone; for hexane-extractable products formed from GGPP, analyzed by Ag-TLC: overnight incubation at room temperature, FIG. 3. The protocol: (§1) Synthase activity assays were carried out based on the assay described in Vogeli and Chappell, Plant Physiol. 94:1860 (1990) and Vogeli, et al., Plant Physiol. 93:182 (1990). In general, radio-labeled (^3H or ^14C) substrate was incubated with enzyme at room temperature in a buffered magnesium salt solution (200 mM Tris, pH 8, 50 mM Mg chloride, 1 mM DTT, unless otherwise noted); hydrocarbon products were then selectively extracted into an organic solvent such as hexane. The hexane extract generally was treated with silica gel to remove prenyl alcohols and other oxygenated compounds generated by non-enzymatic hydrolysis of substrate, which partition inefficiently into hexane. Hydrocarbon products present in the hexane phase were quantitated by scintillation counting.
A subsequent extraction with a more polar organic solvent such as ethyl acetate was sometimes carried out. Oxygenated compounds more efficiently partition into ethyl acetate-type solvents. Compounds present in the ethyl acetate phase were also quantitated by scintillation counting.
(§2) Substrate concentrations typically ranged from 0.1 nanomolar to 100 micromolar. In some assays, the substrate was not radiolabeled. Reactions generally were carried out in triplicate for each substrate concentration. Protein concentration was determined by the Bradford method. For determination of steady-state kinetic parameters, enzyme concentrations were chosen such that generation of products over time was linear throughout the course of the reaction.
(§3) Diterpene synthase assays typically were carried out using ^3H geranylgeranyl diphosphate (GGPP) and enzyme in 250 mM Tris, 10 mM Mg chloride, 1 mM DTT, pH 8.0. Sesquiterpene synthase assays typically were carried out using ^14C or ^3H FPP and enzyme in 100 mM Tris, 30 mM Mg chloride, 1 mM DTT, pH 8.0. Monoterpene synthase assays typically were carried out using ^3H GPP and enzyme. As a control for nonspecific binding of GPP by protein, identical reactions were set up which contained BSA, rather than enzyme.
(§4) Terpenoid hydrocarbon products are not readily separated by thin layer chromatography on normal or reverse-phase plates; however, some can be separated by argentation TLC (Ag-TLC), in which silica plates are first treated with silver nitrate. Ag-TLC described here generally followed the procedure described by Back et al., Arch. Biochem. Biophys. 315:527 (1994). A silica TLC plate was dipped in 15% silver nitrate (aqueous), then dried for 3-5 hours at 110° C. After spotting of tritiated enzymatic products (solvent extract), the plate was developed in benzene:hexane, ethyl acetate (50:50:1, by volume), sprayed with En^3Hance (NEN) fluorography spray, placed on film, and exposed for several days to several weeks. Long exposure times were generally necessary, as silver-nitrate treatment of the TLC plate appeared to cause quenching of the fluorography reagents fluorescence. Alternatively, ^14C labelled products were detected after one to two days without the use of fluorography spray.
The TEAS W273S enzyme and radiolabelled GGPP were incubated as described above and hydrocarbon products were extracted with hexane. Oxygenated products were then extracted with ethyl acetate.
The mutant TEAS C440W1W273S protein contains a tryptophan residue at position 440 and a serine residue at position 273. Assays with GGPP were carried out using 0.5 micromolar ^3H GGPP, various concentrations of unlabelled GGPP (Echelon), and enzyme. Reactions were incubated for 60 minutes at room temperature. […] Hexane-extractable products of GGPP turnover by the double mutant were analyzed by Ag-TLC. The products included two species (Rf=0.11 and 0.28) that were distinct from the hydrolysis product geranyl geraniol (Rf=0.0).To verify that products generated by TEAS C440W/W273S from GGPP were not the hydrolysis product, geranylgeraniol, a sample was analyzed by Ag-TLC. […]

Data set [3] can be described thus: Sesquiterpene synthase activity assay with radiolabelled FPP (Ag-TLC and GC/MS product analysis). Conditions: for products of FPP turnover, analyzed by Ag-TLC: radiolabelled FPP, FIG. 4. The protocol:
as §1, §2, §3, §4
Products of FPP turnover by the purified TEAS W273S mutant were analyzed by argentation thin-layer chromatography (Ag-TLC).
Reactions with FPP as substrate were carded out with ^14C FPP (9 μm) and enzyme (160 μm) in reaction buffer (20 μl). After incubating for 30 minutes at room temperature, products made by TEAS C440W/W273S were analyzed by Ag-TLC. […] The new product was distinct from both 5-epi-aristolochene and vetispiradiene. Several other products were also formed, many of which migrated slowly upon argentation TLC.
Reactions with radiolabeled FPP and TEAS Y520F enzyme were carried out essentially as described above. Reaction products were analysed by Ag-TLC and by GC/MS.

A short description of data set [4]: Monoterpene synthase activity assay with GPP. Conditions: crude extract of enzyme from E. coli. As to the method:
as §1, §3
A crude extract of TEAS Y527F enzyme was made by inducing expression in E. coli cells, and sonicating the cells. […]

Positions count from the first letter of the chain named. Names may count otherwise.

B1: wild-type TEAS: tobacco 5-epi-aristolochene synthase (TEAS) protein, SEQ ID NO:2, Nicotiana tabacum (protein)
chain: MASAAVANYEEEIVRPVADFSPSLWGDQFLSFSIKNQVAEKYAQEIEALKEQTRNMLLATGMKLADTLNLIDTIERLGISYHFEKEIDDILDQIYNQNSNCNDLCTSALQFRLLRQHGFNISPEIFSKFQDENGKFKESLASDVLGLLNLYEASHVRTHADDILEDALAFSTIHLESAAPHLKSPLREQVTHALEQCLHKGVPRVETRFFISSIYDKEQSKNNVLLRFAKLDFNLLQMLHKQELAQVSRWWKDLDFVTTLPYARDRVVECYFWALGVYFEPQYSQARVMLVKTISMISIVDDTFDAYGTVKELEAYTDAIQRWDINEIDRLPDYMKISYKAILDLYKDYEKELSSAGRSHIVCHAIERMKEVVRNYNVESTWFIEGYTPPVSEYLSNALATTTYYYLATTSYLGMKSATEQDFEWLSKNPKILEASVIICRVIDDTATYEVEKSRGQIATGIECCMRDYGISTKEAMAKFQNMAETAWKDINEGLLRPTPVSTEFLTPILNLARIVEVTYIHNLDGYTHPEKVLKPHIINLLVDSIKI
Turning to B1, in data set [1], the “alkylation of the enzyme by FPP” value is on record as “not alkylated”. In data set [2], the “conversion of GGPP to hexane-extractable products” value is “did not”; the “counts in hexane and ethyl acetate extracts after incubation with radiolabelled GGPP” value was “counts lower than buffer alone”.

B2: TEAS C440W: TEAS mutant with tryptophan at position 440 (protein, UniProt Q40577 1-548, looked up, variant C440W)
5-epi-aristolochene synthase: B1 chain with Q44K, C440W
As to B2, the “hexane-extractable products formed from GGPP, analyzed by Ag-TLC” value (“hexane-extractable products formed” below) in data set [2] is reported as “no hexane-extractable products were detectable”. In data set [3], the “products of FPP turnover, hexane extract analyzed by GC/MS” value (from here on “products of FPP turnover … by GC/MS”) is on record as “single major sesquiterpene hydrocarbon product as well as a small number of minor hydroxylated products” and the “products of FPP turnover, analyzed by Ag-TLC” value is reported as “at least one major terpenoid hydrocarbon product”.

B3: TEAS Y520F: TEAS protein in which Tyr520 is changed to Phe, SEQ ID NO:6 (protein)
chain: B1 chain with K35D, N55S, M62R, T73I, D89E, T388M, Y520F
For the molecule B3, in data set [3], the “products of FPP turnover … by GC/MS” value is “same GC retention time as authentic germacrene A and the same mass spectrum as authentic germacrene A”.

B4: TEAS W273S: TEAS mutant with serine at position 273 (protein, UniProt Q40577 1-548, looked up, variant W273S)
5-epi-aristolochene synthase: B1 chain with Q44K, W273S
Turning to B4, in data set [2], the “counts in hexane and ethyl acetate extracts after incubation with radiolabelled GGPP” value is “counts that were significantly higher for both the hexane and ethyl acetate extracts”; the “hexane-extractable products formed” value was “distinct from the products made by acid-catalyzed loss of diphosphates from GGPP”. In addition, in data set [3], the “products of FPP turnover … by GC/MS” value is “at least four terpene hydrocarbons”; the “products of FPP turnover, analyzed by Ag-TLC” value was “distinct from both 5-epi-aristolochene (Rf=0.78) and vetispiradiene (Rf=0.63)”.

B5: TEAS C440W/W273S: TEAS double mutant, tryptophan at position 440 and serine at position 273, SEQ ID NO:10 (protein)
chain: B1 chain with K35D, N55S, M62R, T73I, D89E, W273S, T388M, C440W
Regarding B5, in data set [2], the “conversion of GGPP to hexane-extractable products” value was “converted GGPP to hexane-extractable products” and the “hexane-extractable products formed” value is “different from those generated by non-enzymatic degradation of geranylgeranyl diphosphate”.

B6: TEAS W273E: TEAS protein in which Trp273 is changed to Glu, SEQ ID NO:4 (protein)
chain: B1 chain with K35D, N55S, M62R, T73I, D89E, W273E, T388M
As for B6, in data set [1], the “alkylation of the enzyme by FPP” value is given as “alkylation of TEAS by FPP had occurred”. Moreover, the “products of FPP turnover, analyzed by Ag-TLC” value in data set [3] was “at least one product other than 5-epi-aristolochene was formed”.

B7: TEAS Y527F: TEAS protein in which Tyr527 is changed to Phe, SEQ ID NO:8 (protein)
chain: B1 chain with K35D, N55S, M62R, T73I, D89E, T388M, Y527F
For B7, the “products formed with GPP as a substrate (monoterpene synthase activity)” value in data set [4] was “No products were observed”. In addition, the “products of FPP turnover, analyzed by Ag-TLC” value in data set [3] was “products other than 5-epi-aristolochene were generated”.

B8: boiled W273E-TEAS: boiled W273E-TEAS used as control in alkylation experiment (protein, UniProt Q40577 1-548, looked up, variant W273E)
5-epi-aristolochene synthase: B1 chain with Q44K, W273E
modifications: heat-denatured (boiled)
notes: boiled W273E-TEAS used as control in alkylation experiment
Take B8: the “alkylation of the enzyme by FPP” value in data set [1] was “not alkylated”.
